Laboratory results as given in patent US20170015737A1 (published 2017).

Experiments:
pH4.0-treated TTR [1] = biological target: T1, pH4.0-treated TTR (human, UniProt P02766 21-147); assay: sandwich ELISA (pH4-TTR)
pH4.0-treated TTR [2] = biological target: T1, pH4.0-treated TTR; assay: ELISA, pH4-TTR captured on anti-His coated plate
pH4.0-treated TTR [3] = biological target: T1, pH4.0-treated TTR; assay: sandwich ELISA on pH4-TTR (the table prints 14.6 for 6C1)
[4] = biological target: recombinant human TTR F87M/L110M (human, UniProt P02766 21-147); assay: SPR, mAb captured on anti-mouse IgG chip, TTR F87M/L110M as analyte

B1: 6C1 (antibody, V domains shown)
VH: EVQLVESGGGLVQPGGSLKLSCAASGFTFSNYYMSWVRQTPEKRLEWVAYISIDGNNIYHPDSVKGRFTISRDNAKNTLYLQMSSLKSEDTAMYYCARDSDYGYFDVWGTGTTVTVSS
VL: DVLMTQTPLSLPVSLGDQASISCRSSQSIVHSNGNTYLEWYLQKRGQSPKLLIYKVSKRFSGVPDRFSGSGSGTDFILKISRVEAEDLGVYYCFQGSHVPLTFGGGTKLELK
Kd (pH4.0-treated TTR [1]): 14.6 nM | Kd (pH4.0-treated TTR [2]): 16 nM | Kd (pH4.0-treated TTR [3]): 14.5 nM | Kd [4]: 9.01 nM | koff [4]: 0.000415 s⁻¹ | kon [4]: 46100 M⁻¹ s⁻¹
